Consider one substance from patent publication US20230212554A1.

The target in experiment [1] is NPB1 (influenza B virus B/Houston/B720/2004) (UniProt O36433). Briefly: ELISA on recombinant NP.
In experiment [2] the target is NP of B/Brisbane/60/2008(fluB) (influenza B virus B/Brisbane/60/2008). Briefly: ELISA on virus-infected fixed MDCK cells.

As to ab47876 (antibody), the half-maximal effective concentration (EC50) amounted to 0.13 nM in experiment [1] and 2.06 nM in experiment [2].
